# Test results reported in PMC10078426 (2022).
# Target: human IgG from serum (human, UniProt P01857 = IgG part)
# Test: SPR
binder,measurement,value
protein G only (natural protein) VDSPIEDTPIIRNGGELTNLLGNSETTLALRNEESATADLTAAAVADTVAAAAAENAGAAAWEAAAAADALAKAKADALKEFNKYGVSDYYKNLINNAKTVEGVKDLQAQVVESAKKARISEATDGLSDFLKSQTPAEDTVKSIELAEAKVLANRELDKYGVSDYHKNLINNAKTVEGVKDLQAQVVESAKKARISEATDGLSDFLKSQTPAEDTVKSIELAEAKVLANRELDKYGVSDYYKNLINNAKTVEGVKALIDEILAALPKTDTYKLILNGKTLKGETTTEAVDAATAEKVFKQYANDNGVDGEWTYDDATKTFTVTEKPEVIDASELTPAVTTYKLVINGKTLKGETTTEAVDAATAEKVFKQYANDNGVDGEWTYDDATKTFTVTEKPEVIDASELTPAVTTYKLVINGKTLKGETTTKAVDAETAEKAFKQYANDNGVDGVWTYDDATKTFTVTEMVTEVPGDAPTEPEKPEASIPLVPLTPATPIAKDDAKKDDTKKEDAKKPEAKKEDAKKAETLPTT,Kd,35.6 nM
